This passage reports normalised SPOT signal, Boehringer light units (BLU); mean over the file's lines of this peptide results from PMC314469, “Protein Interaction Networks by Proteome Peptide Scanning” (PLoS Biology, 2004).

What all share (assay): SPOT array
Assay [1] has as its target T1, Rvs167 SH3 (RV167_YEAST), P39743.
T1 chain: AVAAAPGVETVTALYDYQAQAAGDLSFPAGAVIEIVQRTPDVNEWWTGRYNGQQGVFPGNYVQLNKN

Assay [2] deals with T2, Yhr016c SH3 (YSC84_YEAST), P32793.
T2 chain: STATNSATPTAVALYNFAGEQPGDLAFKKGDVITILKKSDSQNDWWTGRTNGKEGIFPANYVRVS

Assay [3] has as its target T3, Boi2 SH3 (BOI2_YEAST), P39969.
T3 chain: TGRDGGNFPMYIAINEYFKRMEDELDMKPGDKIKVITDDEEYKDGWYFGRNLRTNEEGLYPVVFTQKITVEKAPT

Assay [4] addresses T4, Yfr024 SH3 (LSB3_YEAST), P43603.
T4 chain: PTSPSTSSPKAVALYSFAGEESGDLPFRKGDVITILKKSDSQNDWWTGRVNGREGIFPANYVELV

The target in assay [5] is T5, Boi1 SH3 (BOI1_YEAST), P38041.
T5 chain: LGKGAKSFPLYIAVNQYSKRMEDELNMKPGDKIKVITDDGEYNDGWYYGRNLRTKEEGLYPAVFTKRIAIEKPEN

On to QIFPKKPLRRTVMS [YDR182W 166-179], for which the normalised SPOT signal, Boehringer light units (BLU); mean over the file's lines of this peptide came out at 737 in assay [1]; 8570 in assay [2]; 282 in assay [3]; 35400 in assay [4]; 231 in assay [5].

In the case of QGQPLPPPRGQVIL [YBR108W 287-300], the normalised SPOT signal, Boehringer light units (BLU); mean over the file's lines of this peptide is 8250 in assay [1]; 16000 in assay [2]; 83.2 in assay [3]; 22700 in assay [4]; 231 in assay [5].

Regarding QAHPPKPKRREGDI [YKR050W 402-415], the normalised SPOT signal, Boehringer light units (BLU); mean over the file's lines of this peptide in assay [1] stood at 41.1; in assay [2], 740; in assay [3], 38.2; in assay [4], 9260; in assay [5], 133.

QGLPASPSRAALRY [YBR038W 55-68]: the normalised SPOT signal, Boehringer light units (BLU); mean over the file's lines of this peptide in assay [1] was found to be 62.5; in assay [2], 104; in assay [3], 57.8; in assay [4], 522; in assay [5], 1720.

On to QILPTKPVKIIEQN [YLR082C 68-81], for which the normalised SPOT signal, Boehringer light units (BLU); mean over the file's lines of this peptide in assay [1] was determined as 14.6; in assay [2] it was 73.8; in assay [3] it was 36.5; in assay [4] it was 183; in assay [5], 30.5.

As to QGPPNLPARDKSLV [YLL023C 9-22], the normalised SPOT signal, Boehringer light units (BLU); mean over the file's lines of this peptide in assay [1] came to 18500; in assay [2] it was 64000; in assay [3], 23; in assay [4] it was 36100; in assay [5], 63.2.

Regarding QEKPLTPLKYTKLI [YHL025W 160-173], the normalised SPOT signal, Boehringer light units (BLU); mean over the file's lines of this peptide in assay [1] was 99.4; in assay [2] it was 7.1; in assay [3], 28.6; in assay [4], 929; in assay [5] it was 78.

For QGEPLDPKRPSTAS [YGL027C 141-154], the normalised SPOT signal, Boehringer light units (BLU); mean over the file's lines of this peptide in assay [1] was 45.6; in assay [2], 418; in assay [3], 23.1; in assay [4] it was 440; in assay [5], 51.9.

With QGYPRQPQRPQRYH [YDR171W 27-40], the normalised SPOT signal, Boehringer light units (BLU); mean over the file's lines of this peptide in assay [1] was 620; in assay [2] it was 8440; in assay [3], 377; in assay [4], 13200; in assay [5], 7410.

On to QAAPRNPNKDATIA [YOR363C 59-72], for which the normalised SPOT signal, Boehringer light units (BLU); mean over the file's lines of this peptide in assay [1] was 40.7; in assay [2] it was 46.6; in assay [3], 10.5; in assay [4], 8.2; in assay [5], 78.3.

QKTPPSPAKPKQKT [YBR102C 26-39]: the normalised SPOT signal, Boehringer light units (BLU); mean over the file's lines of this peptide in assay [1] is 156; in assay [2], 176; in assay [3], 43.4; in assay [4], 365; in assay [5] it was 331.

As to QFVPIAPQRLNMIF [YMR247C 1015-1028], the normalised SPOT signal, Boehringer light units (BLU); mean over the file's lines of this peptide in assay [1] was determined as 90; in assay [2], 601; in assay [3], 68.9; in assay [4] it was 1580; in assay [5], 427.

Take QETPIIPKRIIHYS [YLR030W 11-24]: the normalised SPOT signal, Boehringer light units (BLU); mean over the file's lines of this peptide was 625 in assay [1]; 7820 in assay [2]; 246 in assay [3]; 15200 in assay [4]; 4800 in assay [5].

In the case of QLEPLAPYKFFDII [YLR430W 1690-1703], the normalised SPOT signal, Boehringer light units (BLU); mean over the file's lines of this peptide in assay [1] came to 62.7; in assay [2], 334; in assay [3], 23.8; in assay [4], 70.2; in assay [5], 85.7.

Regarding QDSPDMPEKESVYV [YER179W 310-323], the normalised SPOT signal, Boehringer light units (BLU); mean over the file's lines of this peptide worked out at 4.7 in assay [1]; 0 in assay [2]; 42.6 in assay [3]; 26.9 in assay [4]; 51.6 in assay [5].
